Test [1] concerns the target … / HLA-A2 / wild-type β2m on T2 cells (human).
The target of test [2] is … / HLA-A2 / β2m K58→E on T2 cells (human).

On to “HLA-A2 restricted parvovirus B19 specific CTL line (cells without a defined receptor)”, for which the specific lysis (51Cr release), E:T 22:1, 4 hours is 7.3% in test [1] and 2.6% in test [2].

(Values after patent US20060165707A1.)
